Data reported in US20100303858A1.

Legend:
[1] = target: gp120/sCD4 complex (HIV-1 YU2) (UniProt P35961); experiment: SPR (BIACORE 2000), antibody immobilized on CM4 chip, gp120/sCD4 as analyte, 1:1 Langmuir fit
[2] = target: gp120/sCD4 complex (HIV-1 YU2) (UniProt P35961); experiment: SPR, antibody immobilized; KD of gp120/sCD4 against KD of gp120ΔV1/V2sdCD4 and gp120ΔV2sdCD4
[3] = target: gp120ΔV1/V2sdCD4 chimeric protein (HIV-1 YU2) (UniProt P35961); experiment: SPR (BIACORE 2000), antibody immobilized on CM4 chip, chimeric protein as analyte, 1:1 Langmuir fit
[4] = target: gp120ΔV2sdCD4 chimeric protein (HIV-1 YU2) (UniProt P35961); experiment: as above
[5] = target: wild type gp120YU2 (HIV-1 YU2) (UniProt P35961); experiment: ELISA, gp120 captured by D7324, bound antibody as OD 490 nm
[6] = target: gp120/sCD4 complex (HIV-1 YU2) (UniProt P35961); experiment: ELISA, gp120/sCD4 captured by D7324, bound antibody as OD 490 nm

Row | Substance | Kd [1] [nM] | koff [1] [s⁻¹] | kon [1] [M⁻¹ s⁻¹] | fold KD against the chimeric proteins [2] [fold] | Kd [3] [nM] | koff [3] [s⁻¹] | kon [3] [M⁻¹ s⁻¹] | Kd [4] [nM] | koff [4] [s⁻¹] | kon [4] [M⁻¹ s⁻¹] | EC50 (read off the curve) [5] [µg/mL] | EC50 (read off the curve) [6] [µg/mL]
1 | human CD4i monoclonal antibody 4.8D | 1.2 | 0.000212 | 177000 | 100 | 0.015 | 0.000149 | 9.45e+06 | 0.038 | 0.000197 | 5.2e+06 |  | 
2 | human MAb F105 (antibody) |  |  |  |  |  |  |  |  |  |  | 0.1 | 0.3
3 | human CD4i monoclonal antibody E51 | 0.21 | 0.000169 | 796000 |  | 0.012 | 0.000516 | 4.27e+07 | 0.013 | 0.000398 | 3.08e+07 |  | 
